Results on five molecules are retold here after paper PMC8693265, “Investigation of PAS and CNBH domain interactions in hERG channels and effects of long-QT syndrome-causing mutations with surface plasmon resonance” (The Journal of Biological Chemistry, 2021).

By Kd is commonly meant the constant that tells how readily two partners part at equilibrium.

Like-named read-outs stand apart in the source and are kept apart here.

B1: hERG PAS domain (residues 2-134) (domain or fragment, human, UniProt Q12809 2-134, looked up)
chain: PVRRGHVAPQNTFLDTIIRKFEGQSRKFIIANARVENCAVIYCNDGFCELCGYSRAEVMQRPCTCDFLHGPRTQRRAAAQIAQALLGAEERKVEIAFYRKDGSCFLCLVDVVPVKNEDGAVIMFILNFEVVME
notes: PAS domain (with PAS-cap) of the human ether-a-go-go-related gene (hERG, Kv11.1, KCNH2) channel, residues 2-134; Cloned in pETM11; The PAS domain expressed from mRNA in oocytes (pGH19) is written under this molecule in the functional rows; also called isolated PAS domain; free PAS domain; not shown: 6-His, N-terminal, cleaved
B4: hERG CNBH domain (residues 734-867) (domain or fragment, human, UniProt Q12809 734-867, looked up)
chain: RSLLQHCKPFRGATKGCLRALAMKFKTTHAPPGDTLVHAGDLLTALYFISRGSIEILRGDVVVAILGKNDIFGEPLNLYARPGKSNGDVRALTYCDLHKIHRDDLLEVLDMYPEFSDHFWSSLEITFNLRDTNM
notes: also called isolated CNBH domain; not shown: 6-His, N-terminal, cleaved

Common to all, as to assay: SPR; one domain amine-coupled to a CM5 chip (~2000-3000 RU), the other injected as analyte over a range of concentrations (maximum 10 uM); Biacore T200, 25 C; 150 mM KCl, 1 mM TCEP, 10% glycerol, 0.05% Tween 20, 30 mM HEPES pH 7.5; fits with the two-state reaction model; for PAS/PAS and CNBH/CNBH the step of oligomerisation is not told
(In general: Surface plasmon resonance follows binding to a sensor surface in real time, without labels.)

Series [1] deals with the molecule itself.
Series [2] concerns the target B4. As to conditions: both partners purified.
Series [3] concerns the molecule itself. This is another data set of the same source.
The target in series [4] is B4. As to conditions: both partners purified. The source holds these as a separate data set.
The target in series [5] is B1. The following applies: both partners purified.

On to B1, for which the Kd in series [1] stood at 400 nM; in series [2] it was 1400 nM; in series [3], 1600 nM.

B2: hERG PAS domain with the LQTS-causing mutation R20G (domain or fragment, human, UniProt Q12809 2-134, looked up)
chain: PVRRGHVAPQNTFLDTIIGKFEGQSRKFIIANARVENCAVIYCNDGFCELCGYSRAEVMQRPCTCDFLHGPRTQRRAAAQIAQALLGAEERKVEIAFYRKDGSCFLCLVDVVPVKNEDGAVIMFILNFEVVME
notes: PAS domain of the hERG (KCNH2) channel, residues 2-134, with the genetically occurring LQTS mutation R20G; also called PAS-R20G; not shown: 6-His, N-terminal, cleaved
Regarding B2, the Kd worked out at 2000 nM in series [4] and 3600 nM in series [2].

B3: hERG PAS domain with the LQTS-causing mutation E58D (domain or fragment, human, UniProt Q12809 2-134, looked up)
chain: PVRRGHVAPQNTFLDTIIRKFEGQSRKFIIANARVENCAVIYCNDGFCELCGYSRADVMQRPCTCDFLHGPRTQRRAAAQIAQALLGAEERKVEIAFYRKDGSCFLCLVDVVPVKNEDGAVIMFILNFEVVME
notes: PAS domain of the hERG (KCNH2) channel, residues 2-134, with the genetically occurring LQTS mutation E58D; also called PAS-E58D; not shown: 6-His, N-terminal, cleaved
As to B3, the values for the Kd in series [4] and in series [2] were 200 nM and 600 nM, respectively.

Regarding B4, the Kd in series [1] turned out to be 5000 nM; in series [3], 2700 nM.

B5: mEAG PAS domain (residues 7-136) (domain or fragment, mouse (from the name mEAG), UniProt Q60603 7-136, looked up)
chain: RRGLVAPQNTFLENIVRRSNDTNFVLGNAQIVDWPIVYSNDGFCKLSGYHRAEVMQKSSACSFMYGELTDKDTVEKVRQTFENYEMNSFEILMYKKNRTPVWFFVKIAPIRNEQDKVVLFLCTFSDITAF
notes: PAS domain of the mEAG channel, residues 7-136; not shown: 6-His, N-terminal, cleaved
With B5, the Kd in series [5] was roughly 5600 nM; in series [4] it was roughly 1700 nM.
